Six molecules from patent US6001823A, “Treatment or prophylaxis of diseases caused by pilus-forming bacteria” (priority 1995, dated 1999) can be followed below.

The target of data set [1] is T1, PapD (Escherichia coli, UniProt P15319).
T1 sequence (P15319 22-239): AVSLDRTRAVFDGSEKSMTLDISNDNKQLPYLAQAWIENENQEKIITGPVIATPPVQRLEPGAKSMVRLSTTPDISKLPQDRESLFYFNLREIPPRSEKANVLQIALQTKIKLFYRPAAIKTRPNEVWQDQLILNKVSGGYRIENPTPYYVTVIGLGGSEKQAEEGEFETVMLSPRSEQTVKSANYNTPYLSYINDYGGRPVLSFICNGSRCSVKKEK
Nature of the data set: ELISA: PapD binding to peptides coated on microtiter wells. The following applies: for binding of PapD to immobilized peptide: peptide coated on microtiter wells, ELISA. Details: made in house; species or system E. coli. The protocol:
The residues in the peptides were numbered starting with the carboxyl terminal residue as 1, and ending with the amino terminal residue. Peptides were also synthesized which deviated in length (G1'-16'WT, G1'-11'WT, G1'-7'WT) or sequence (G2'-21'amide, G1'-19'SV, G1'-19'NH2) from the wild type PapG carboxyl terminal sequence. Using an enzyme-linked immunosorbent assay (ELISA), we tested the ability of PapD to bind to each peptide coated on wells of microtiter plates:
5 mg/ml stock solutions of peptides in water or 50% acetic acid were diluted to a concentration of 2.5 pmol/50 μl in PBS. 50 μl of the peptide solution was coated overnight onto microtiter wells (Nunc-Immuno Plate Maxisorp) at 4° C. The solutions in the plates were discarded, and the wells were blocked with 200 μl 3% bovine serum albumin (BSA, Sigma) in PBS (120 mM NaCl/2.7 mM KCl/10 mM phosphate buffer salts, pH 7.4) for 2 hours at 25° C. The plates were washed vigorously 3 times with PBS and incubated with 50 μl of the indicated amount of purified PapD (Lindberg et al, 1989). After 3 washes with PBS, the wells were incubated with a 1:500 dilution of anti-PapD rabbit antiserum (Lindberg et al, 1989) in 3% BSA/PBS for 45 min. at 25° C. After 3 washes with PBS, the wells were incubated with a 1:1000 dilution of goat anti-rabbit IgG coupled to alkaline phosphatase (Sigma) in 3% BSA/PBS for 45 min. at 25° C. Following 3 washes with PBS and 3 washes with developing buffer (10 mM diethanolamine pH 9.5, 0,5 mM MgCl2), 50 μl filtered p-nitrophenyl phosphate substrate (Sigma) in developing buffer (10 mg/ml) was added. The absorbance at 405 nm was read after 60 min of incubation in the dark at 25° C.

The target in the next data set is T2, PapD-PapG complex (Escherichia coli, UniProt P15319).
T2 construct: made in house
T2 sequence (P15319 22-239): T1 sequence (P15319 22-239)
Nature of the data set: Reconstitution assay: restoration of PapD-PapG complex from reduced, denatured PapG. It counts as biochemical, E. coli. To be noted: PapD incubated with increasing amounts of peptide. As to the method: B: PapD incubated with the G1'-19'WT, G1'-16'WT, K1'-19'WT, and G2'-21'amide was added to reduced, denatured PapD-PapG and the amount of PapD-PapG complex restored in each sample was quantitated as described in example 2. The % inhibition represents the amount of the PapD-PapG complex restored with peptide-treated PapD compared to the amount of PapD-PapG complex restored with untreated PapD. The graph represent the average of 4 experiments. PapD and PapD-PapG complex were prepared as described in F. Lindberg et al, J. Bacteriol. 171, 6052 (1989) and S. J. Hultgren et al., Proc. Natl. Acad. Sci. U.S.A. 86, 4357 (1989).
FIG. 7: Ability of PapD Arg-8, Lys-112 and Thr-7 mutants to bind PapG and restore the PapD-PapG complex in vitro. 0.4 μg of PapD-PapG complex was reduced and denatured as described in FIG. 2B. The denatured PapD-PapG complex was then diluted with 0-630 ng purified wild type (WT) or mutant PapD. The amount of PapD-PapG restored in the samples was determined as in FIG. 2B and was graphed as a percentage of the greatest amount of PapD-PapG restored. The values graphed represent the average of 3 experiments. Wild type and mutant PapD and the PapD-PapG complex were purified as described in F. Lindberg et al, J. Bacteriol. 171, 6052 (1989) and S. J. Hultgren et al., Proc. Natl. Acad. Sci. U.S.A. 86, 4357 (1989).
As described in Kuehn et al., Proc. Natl. Acad. Sci. U.S.A. 88, 10586 (1991), native PapD is able to bind to reduced, denatured PapG and restore the PapD-PapG complex in vitro. This reconstitution assay was used to determine the ability of the peptides to inhibit PapD activity in vitro.
The PapD-peptide solution was then added to the reduced, denatured PapD-PapG, incubated at 25° C. for 10 min, and applied to an IEF 3-9 gel (Pharmacia). The amount of PapD-PapG restored in each sample was quantitated by densitometry of the silver stained IEF band corresponding to the pI of the DG complex.

The target in data set [2] is T1, PapD. Nature of the data set: Soluble inhibition ELISA: peptide inhibition of PapD binding to G1'-19'WT-coated wells. Details: made in house; species or system E. coli. The following applies: for % Inhibition: 25-fold molar excess of peptide, 100 pmol/well PapD, G1'-19'WT-coated wells. As to the method:
In addition, the ability of water-soluble peptides to inhibit PapD binding to G1'-19'WT-coated wells in a soluble inhibition ELISA were tested, since peptide conformations may have been affected by binding to the plastic microtiter plates:
Microtiter wells were coated overnight at 4° C. with 50 μl of 2,5 pmol/50 μl of the G1'-19'WT peptide. The wells were washed with PBS and blocked with 3% bovine serum albumin (BSA). A 25-fold molar excess of each test peptide was pre-incubated with 100 pmoles PapD for 30 min. and the PapD-peptide solution was then added to the coated wells and incubated at 25° C. for 45 min in the presence of 3% BSA/PBS. The subsequent primary antibody, secondary antibody and developing steps are described above. The ability of the peptides to inhibit binding of PapD to the G1'-19'WT peptide was calculated by dividing the amount of PapD binding in the presence of peptide with the amount of PapD binding in the presence of water. 0% inhibition includes values where binding was greater than that of PapD pre-incubated with H2 O.
The % inhibition represents the percentage of PapD binding in the presence of the peptide compared to in the presence of water and are the average of two experiments performed duplicate: […]

Data set [3] addresses T1, PapD. Nature of the data set: Protection of PapD against tryptic cleavage by peptides. It counts as biochemical, E. coli. Details: made in house. The following applies: PapD preincubated with 20-fold molar excess of peptide. The protocol:
A Lower: The rate of trypsin cleavage of PapD decreased upon preincubation with the G1'-19'WT, G1'-16'WT or K1'-19'WT peptides, but the G2'-21'amide peptide had no effect. 50 μg of purified PapD was preincubated for 15 min at 25° C. with a 20-fold molar excess of G1'-19'WT, G1'-16'WT, K1'-19'WT or G2'-21'amide peptides (any trypsin cleavage sites in these peptides occur at their amino termini where they were predicted not to interfere with PapD), or an equivalent volume of water. Each sample was then incubated at 37° C. with 3.2 μg of trypsin. Aliquots were removed after 0, 5, 10, 20, 30 and 40 min and boiled in SDS-PAGE sample buffer to stop the digestion. The samples were applied to 15% SDS-PAGE gels and the amount of full-length PapD remaining was determined by densitometry of Coomassie blue stained bands corresponding to full-length PapD which are shown.
400 μg of PapD was partially digested by incubation with either 4,5 μg trypsin or 0.45 μg chymotrypsin on PBS for 20 min. at 37° C. The PapD digests were applied to a C-18 HPLC column (Beckman) and 2 major fragments were eluted with a 0-100% acetonitrile gradient in 0.01% trifluoroacetic acid. The PapD fragments were identified by their molecular weight on SDS-PAGE and amino-terminal sequencing. The N-terminal amino acid sequences of the approximately 14 kDa tryptic and chymotryptic fragments were identified as residues 100-108 and 104-109 of PapD, respectively, corresponding to cleavage after Lys-99 (for trypsin) and Leu-103 (for chymotrypsin). The N-terminal sequences of the 11 and 12 kDa bands in the digests were identical to the N-terminal sequence of PapD.

Data set [4] in a line: Water solubility of peptides. Also noted: key: *: Water insoluble peptides. It counts as physicochemical.
In data set [5] the target is T1, PapD. Nature of the data set: ELISA: peptide inhibition of PapD binding to MBP-G1'-140' fusion protein. Also noted: species or system E. coli. The following applies: PapD preincubated with peptide at 1:25 ratio. As to the method: The ability of the peptides to inhibit the binding of PapD to the MBP-G1'-140' fusion protein was then investigated using the following ELISA test:
Stock solutions of MBP-G1'-140' proteins in PBS were diluted to 0.1 μM with PBS. The wells of microtiter plates were coated with 50 μl of the protein solutions overnight at 4° C. The wells were washed with PBS, and blocked with 200 μl of 3% bovine serum albumin (BSA) in PBS for 2 hours at 25° C. The plates were washed vigorously three times with PBS and incubated with 50 μl of 1-5 μM PapD proteins in 3% BSA-PBS for 45 minutes at 25° C. The PapD was preincubated with each of the peptides at a 1:25 ratio for 30 min before being added to the wells. After three washings with PBS, the wells were incubated with a 1:500 dilution of rabbit anti-PapD antiserum in 3% BSA-PBS for 45 minutes at 25° C. After three washings with PBS, the wells were incubated with a 1:1000 dilution of goat antiserum to rabbit IgG coupled to alkaline phosphatase in 3% BSA-PBS for 45 minutes at 25° C. After three washings with PBS and three washings with developing buffer (10 mM diethanolamine, 0.5 mM MgCl2), 50 μl filtered 1 mg/ml p-nitrophenyl phosphate in developing buffer was added, the reaction was incubated for 1 hour or longer if necessary in the dark at 25° C., and the absorbance at 405 nm was read.

The next data set concerns HB101/pPAP37. Nature of the data set: Hemagglutination titer of PapD mutants. The data set is classed as cell-based, E. coli. To be noted: induction with 0.01 mM IPTG; greatest bacterial dilution which still agglutinates erythrocytes. The protocol: *The hemagglutionation (HA) titer was quantitated after induction with
0.01 mM IPTG. The HA titer represents the greatest bacterial dilution
which still agglutinates erythrocytes. HB101/pPAP37 expressing wild type
PapD has an HA titer of 128.

Entries after “also recorded” stand apart in the source; their conditions may differ.

As a reminder, the % Inhibition is the share of the control response that was lost under treatment. On to “NH2--EEGKRKPGELSGSMTMVLSF--CONH2 (H-EEGKRKPGELSGSMTMVLSF-NH2) [G2'-21'amide]”, for which, in the data set with PapD [1], the “binding of PapD to immobilized peptide” value is on record as “reduced binding”. The “reduction of binding of PapD to the immobilized peptide” value in the data set with PapD [1] (variant of the PapG carboxyl terminal peptide, immobilized) is listed as “approximately 75%”. Moreover, the “inhibition of restoration of the PapD-PapG complex by PapD” value (“inhibition of restoration … by PapD” below) with PapD-PapG complex was “no effect”. Further, the “% Inhibition” value with PapD [2] is reported as 0%. Also, the “inhibition of PapD binding to immobilized G1'-19'WT by soluble peptide” value with PapD [2] (peptide in solution) is recorded as “abolished binding”. For the same molecule, in the data set with PapD [3], the “rate of tryptic cleavage of PapD” value is “no effect”.

“NH2--QNLIAGPFSATATLVASYS--COOH (H-QNLIAGPFSATATLVASYS-OH) [E1'-19'WT]”: in the data set with PapD [1], the “binding of PapD to immobilized peptide” value is given as “moderately”. The water solubility entry in data set [4] is reported as “*”.

In the case of “H-SGSMTMVLSFP-OH [G1'-11'WT, NH2--SGSMTMVLSFP--COOH]”, the “binding of PapD to immobilized peptide” value on PapD [1] is on record as “binds”. For the same molecule, in data set [4], the water solubility result is “*”. The “inhibition of binding of PapD to MBP-G1'-140' fusion protein” value on PapD [5] is recorded as “significantly more potent”.

As for “NH2--GKRKPGELSGSMTMVLSFP--COOH (H-GKRKPGELSGSMTMVLSFP-OH) [G1'-19'WT, 19 carboxyl terminal residues of PapG]”, the “binding of PapD to immobilized peptide” value with PapD [1] is given as “bound well”. The “inhibition of restoration … by PapD” value in the data set with PapD-PapG complex is given as “inhibit restoration”. The “% Inhibition” value in the data set with PapD [2] is 63%. Moreover, the “rate of tryptic cleavage of PapD” value with PapD [3] was “decreased; also recorded: reduced the rate of tryptic cleavage”.

For “NH2--KSVVPGDYEATATFELTYR--COOH (H-KSVVPGDYEATATFELTYR-OH) [K1'-19'WT]”, in the data set with PapD [1], the “binding of PapD to immobilized peptide” value is recorded as “moderately”. In addition, the “inhibition of restoration … by PapD” value in the data set with PapD-PapG complex is listed as “inhibit restoration”. Moreover, the “rate of tryptic cleavage of PapD” value with PapD [3] is “decreased; also recorded: reduced the rate of tryptic cleavage”.

B1: wild type PapD: wild type periplasmic chaperone PapD (protein, UniProt P15319 22-239, looked up)
Chaperone protein PapD: T1 sequence (P15319 22-239)
In the case of B1, in the data set with HB101/pPAP37, the HA titer stood at 128.
